± gives the uncertainty stated by the source.

Data on one sequence can be found in the supplement of paper PMC7877785.

The series is described as follows: self-splicing fitness, log relative to wild type (ln ratio); higher = more splicing; Tetrahymena group I intron in knt gene, E. coli kanamycin selection, DiMSum; sequences stand for … in CUCUCU…GGAGGGAAAAGUUAUCAGGCAUGCACCUGGUAGCUAGUCUUUAAACCAAUAGAUUGCAUCGGUUUAAAAGGCAAGACCGUCAAAUUGCGGGAAAGGGGUCAACAGCCGUUCAGUACCAAGUCUCAGGGGAAACUUUGAGAUGGCCUUGCAAAGGGUAUGGUAAUAAGCUGACGGACAUGGUCCUAACCACGCAGCCAAGUCCUAAGUCAACAGAUCUUCUGUUGAUAUGGAUGCAGUUCACAGACUAAAUGUCGGUCGGGGAAGAUGUAUUCUUCUCAUAAGAUAUAGUCGGACCUCUCCUUAAUGGGAGCUAGCGGAUGAAGUGAUGCAACACUGGAGCCGCUGGGAACUAAUUUGUAUGCGAAAGUAUAUUGAUUAGUUUUGGAGUACUCGUGGUCG
An outline of the steps:
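Colonies from six replicate transformations of E. coli BL21(DE3) were pooled and amplicon-sequenced on an Illumina HiSeq 2500. The library placed an intron with all eight P1ex-region nucleotides randomised inside the knt kanamycin-resistance gene on pET-22b(+), and cells grew overnight at 37°C or 30°C on LB agar with or without 25 μg/mL kanamycin (plus 100 μg/mL carbenicillin, 50 μM IPTG, 0.2% rhamnose). Fitness is the DiMSum error-weighted combination of wild-type-normalised replicate fold changes, kanamycin versus none.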

Consider UUUUAGCAAUAUUACGUUAG, for which the “self-splicing fitness (ln)” value runs as follows: (30 °C) -1.37 ± 0.13; (37 °C) -2.02 ± 0.21.
